Measured values taken from PMC5922973, “Topoisomerase VI senses and exploits both DNA crossings and bends to facilitate strand passage” (eLife, 2018).

Target: T1, topo VI KGRR-AAA (Methanosarcina mazei, UniProt Q8PUB7;Q8PUB8 1-369;1-621, K186A;R188A;R189A)
T1 sequence 1: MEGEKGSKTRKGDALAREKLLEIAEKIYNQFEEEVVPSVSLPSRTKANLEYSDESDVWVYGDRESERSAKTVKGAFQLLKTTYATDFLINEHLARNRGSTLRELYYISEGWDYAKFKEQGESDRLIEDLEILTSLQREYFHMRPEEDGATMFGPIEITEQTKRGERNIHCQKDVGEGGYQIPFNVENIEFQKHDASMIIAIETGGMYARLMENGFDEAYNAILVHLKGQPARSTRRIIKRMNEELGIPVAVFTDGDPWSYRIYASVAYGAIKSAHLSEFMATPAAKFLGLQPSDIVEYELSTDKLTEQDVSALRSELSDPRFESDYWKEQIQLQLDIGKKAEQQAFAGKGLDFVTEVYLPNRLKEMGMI
T1 sequence 2: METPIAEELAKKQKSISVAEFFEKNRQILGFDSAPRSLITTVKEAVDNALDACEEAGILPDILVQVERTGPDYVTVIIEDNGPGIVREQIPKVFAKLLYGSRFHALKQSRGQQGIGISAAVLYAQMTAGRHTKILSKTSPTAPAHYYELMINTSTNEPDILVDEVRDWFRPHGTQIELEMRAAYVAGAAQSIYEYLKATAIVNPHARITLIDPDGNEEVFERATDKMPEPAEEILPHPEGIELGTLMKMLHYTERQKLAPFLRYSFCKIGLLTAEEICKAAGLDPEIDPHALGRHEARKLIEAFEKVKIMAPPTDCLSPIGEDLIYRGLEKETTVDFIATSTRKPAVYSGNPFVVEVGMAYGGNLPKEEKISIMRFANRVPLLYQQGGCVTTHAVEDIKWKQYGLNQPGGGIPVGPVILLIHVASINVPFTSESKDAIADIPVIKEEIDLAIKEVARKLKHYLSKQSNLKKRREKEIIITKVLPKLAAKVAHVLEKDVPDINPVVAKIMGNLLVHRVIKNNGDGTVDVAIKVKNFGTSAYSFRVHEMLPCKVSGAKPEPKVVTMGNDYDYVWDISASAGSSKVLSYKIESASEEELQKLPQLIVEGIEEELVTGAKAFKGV
Test: fluorescence anisotropy; 10 mM Mg2+; ambiguous, poorly defined dFAmax; FA: 20 nM probe, 50 mM K-glutamate, 20 mM HEPES-KOH pH 7.5, 10 mM MgCl2, 5% glycerol, 1 mM TCEP, 0.1 mg/mL BSA; incubated on ice, read at ambient temperature; competition with 100 nM enzyme
Details: protein: recombinant; tags: N-terminal His6-TEV on Top6B, removed; chain copies: 2;2; label: 5'-FAM on S1; four-way Holliday junction, stacked-X, two GAAA-capped arms

B1: 16 x 20 bp stacked junction (structured_DNA)
DNA 1: CGAATACTCAGCTCAACCGAAAGGTTGAGCCTTCGCTCGAAAGAGCGAAGTACTCTTCCG
DNA 2: CGGAAGAGTATGAGTATTCG
**Q.** For B1, which Kd is on record?
**A.** Its Kd is roughly 758 nM.
